We go through six substances from PMC4496297.

Test [1] has as its target FimC-FimH (Escherichia coli) (UniProt P31697). Put plainly: SPR. Conditions: cited from earlier work.
Test [2] deals with FimC_(Q19C)-FimH chaperone-adhesin complex, FimC labeled with coumarin maleimide (CPM) (Escherichia coli) (UniProt P31697). The test is described as follows: other fluorescence titration.
Test [3] has as its target FimCFimH, where FimC was labeled with the thiol-reactive probe coumarin maleimide (CPM) at Q19C, T51. The test is described as follows: other fluorescence titration.

For FimD (from UniProt P30130), the Kd in test [1] is 9.1 nM.
Take “FimD_(ΔC1ΔC2) (purified, His-tag removed) (from UniProt P30130 46-878) (domain or fragment)”: the Kd in test [2] amounted to 389 nM.
“FimD_(ΔNΔplug) (purified, His-tag removed) (from UniProt P30130 46-878) (domain or fragment)” showed a Kd in test [2] of 40.8 nM.
The substance “FimDΔC2 (purified, His-tag removed) (from UniProt P30130 46-878) (domain or fragment)” returned an equilibrium dissociation constant (Kd) in test [2] of 213 nM.
“FimDΔN (purified, His-tag removed) (from UniProt P30130 46-878) (domain or fragment)” showed a Kd in test [2] of more than 1200 nM.
As for “WT FimD usher (purified, His-tag removed) (from UniProt P30130 46-878) (natural protein)”, the Kd in test [3] stood at 9.5 nM.

Broadly, the Kd is the free concentration of one partner at which half of the binding sites on the other are occupied at equilibrium, for simple one-to-one binding.
